# In paper PMC9482650, “Quantitative fragmentomics allow affinity mapping of interactomes” (Nature Communications, 2022):
# T1: APBA1_2, Q02410
# T1 sequence (Q02410 742-832, limits assumed, looked up): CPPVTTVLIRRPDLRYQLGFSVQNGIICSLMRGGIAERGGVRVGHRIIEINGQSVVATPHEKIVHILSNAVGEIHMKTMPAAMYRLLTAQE
# T2: APBA2_2, Q99767
# T2 sequence (Q99767 654-744, limits assumed, looked up): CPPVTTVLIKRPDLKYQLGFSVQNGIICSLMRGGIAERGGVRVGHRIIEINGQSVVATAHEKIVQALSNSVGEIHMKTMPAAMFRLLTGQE
# T3: ARHGEF11, O15085
# T3 sequence (O15085 42-136, limits assumed, looked up): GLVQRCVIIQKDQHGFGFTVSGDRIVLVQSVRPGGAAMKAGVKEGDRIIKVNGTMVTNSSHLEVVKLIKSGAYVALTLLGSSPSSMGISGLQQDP
# T4: GRIP1_2, Q9Y3R0
# T4 sequence (Q9Y3R0 145-248, limits assumed, looked up): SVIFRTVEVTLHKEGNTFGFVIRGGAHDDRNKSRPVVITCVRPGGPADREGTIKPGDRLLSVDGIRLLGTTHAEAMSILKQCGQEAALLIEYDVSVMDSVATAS
# T5: LIN7A, O14910
# T5 sequence (O14910 103-200, limits assumed, looked up): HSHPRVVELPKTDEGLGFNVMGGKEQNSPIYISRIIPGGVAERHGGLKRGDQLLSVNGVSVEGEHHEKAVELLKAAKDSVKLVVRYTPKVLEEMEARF
# T6: LNX2_2, Q8N448
# T6 sequence (Q8N448 334-432, limits assumed, looked up): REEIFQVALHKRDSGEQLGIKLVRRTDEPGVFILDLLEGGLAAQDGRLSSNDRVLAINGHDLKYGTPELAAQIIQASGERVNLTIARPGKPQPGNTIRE
# T7: MPP7, Q5T2T1
# T7 sequence (Q5T2T1 134-230, limits assumed, looked up): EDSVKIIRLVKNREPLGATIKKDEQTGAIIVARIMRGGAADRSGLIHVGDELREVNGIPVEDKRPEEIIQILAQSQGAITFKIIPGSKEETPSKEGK
# T8: NHERF3_3, Q5T2W1
# T8 sequence (Q5T2W1 238-333, limits assumed, looked up): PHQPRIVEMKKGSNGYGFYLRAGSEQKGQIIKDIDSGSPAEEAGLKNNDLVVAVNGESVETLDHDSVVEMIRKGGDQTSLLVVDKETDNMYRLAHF
# T9: PTPN13_1, Q12923
# T9 sequence (Q12923 1088-1188, limits assumed, looked up): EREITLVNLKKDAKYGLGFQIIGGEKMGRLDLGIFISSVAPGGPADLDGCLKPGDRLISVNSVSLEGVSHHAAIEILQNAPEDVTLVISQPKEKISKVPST
# T10: SNTA1, Q13424
# T10 sequence (Q13424 82-180, limits assumed, looked up): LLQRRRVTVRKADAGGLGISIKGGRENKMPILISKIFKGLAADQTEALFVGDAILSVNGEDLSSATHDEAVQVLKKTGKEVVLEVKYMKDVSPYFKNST
# T11: SNTG1, Q9NSN8
# T11 sequence (Q9NSN8 52-150, limits assumed, looked up): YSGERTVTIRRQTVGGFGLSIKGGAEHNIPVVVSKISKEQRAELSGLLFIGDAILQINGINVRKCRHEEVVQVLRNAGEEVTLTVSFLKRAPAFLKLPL
# T12: SYNJ2BP, P57105
# T12 sequence (P57105 8-110, limits assumed, looked up): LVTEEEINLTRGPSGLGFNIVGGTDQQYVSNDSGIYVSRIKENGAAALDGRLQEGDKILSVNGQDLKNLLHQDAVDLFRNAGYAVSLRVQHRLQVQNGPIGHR
# How the values were obtained:
# Test in all cases: holdup assay
# Set-up in all cases: key: below the threshold = too weak to quantify, mostly under pKd 3.1 to 4
# APBA1_2, Q02410 = target: T1, APBA1_2, Q02410
# APBA2_2, Q99767 = target: T2, APBA2_2, Q99767
# ARHGEF11, O15085 = target: T3, ARHGEF11, O15085
# DLG4_1, P78352 = target: DLG4_1, P78352
# Sequence of DLG4_1, P78352 (P78352 62-152): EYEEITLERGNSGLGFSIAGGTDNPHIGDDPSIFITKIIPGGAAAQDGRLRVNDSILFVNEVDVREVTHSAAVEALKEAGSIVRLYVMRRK
# DLG4_2, P78352 = target: DLG4_2, P78352
# Sequence of DLG4_2, P78352 (P78352 155-259): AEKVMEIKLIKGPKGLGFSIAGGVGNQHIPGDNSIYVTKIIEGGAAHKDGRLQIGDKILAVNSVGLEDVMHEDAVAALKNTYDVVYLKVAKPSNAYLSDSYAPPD
# GIPC2, Q8TF65 = target: GIPC2, Q8TF65
# Sequence of GIPC2, Q8TF65 (Q8TF65 112-203): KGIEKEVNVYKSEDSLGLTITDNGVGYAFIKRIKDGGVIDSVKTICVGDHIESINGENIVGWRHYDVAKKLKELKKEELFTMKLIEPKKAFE
# GRIP1_2, Q9Y3R0 = target: T4, GRIP1_2, Q9Y3R0
# GRIP2_4, Q9C0E4 = target: GRIP2_4, Q9C0E4
# Sequence of GRIP2_4, Q9C0E4 (Q9C0E4 446-548): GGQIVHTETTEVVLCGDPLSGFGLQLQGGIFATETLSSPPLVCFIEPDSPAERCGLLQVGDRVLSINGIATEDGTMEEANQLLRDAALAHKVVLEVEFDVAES
# IL16_4, Q14005 = target: IL16_4, Q14005
# Sequence of IL16_4, Q14005 (Q14005 1229-1329): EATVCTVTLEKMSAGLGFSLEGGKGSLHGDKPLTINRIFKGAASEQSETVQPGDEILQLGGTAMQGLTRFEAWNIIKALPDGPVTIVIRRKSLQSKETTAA
# Inadl_2, Q8NI35 = target: Inadl_2, Q8NI35
# Sequence of Inadl_2, Q8NI35 (Q8NI35 238-335): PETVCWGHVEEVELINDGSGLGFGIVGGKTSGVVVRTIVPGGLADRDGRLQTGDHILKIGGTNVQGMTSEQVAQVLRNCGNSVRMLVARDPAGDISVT
# Inadl_4, Q8NI35 = target: Inadl_4, Q8NI35
# Sequence of Inadl_4, Q8NI35 (Q8NI35 547-651): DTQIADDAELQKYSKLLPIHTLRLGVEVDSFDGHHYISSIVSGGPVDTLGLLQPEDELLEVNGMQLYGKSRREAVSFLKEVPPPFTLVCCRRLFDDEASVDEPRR
# Inadl_8, Q8NI35 = target: Inadl_8, Q8NI35
# Sequence of Inadl_8, Q8NI35 (Q8NI35 1425-1530): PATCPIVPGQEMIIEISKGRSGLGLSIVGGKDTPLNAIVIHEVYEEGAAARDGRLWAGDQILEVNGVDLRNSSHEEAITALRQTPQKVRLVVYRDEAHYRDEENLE
# LIN7A, O14910 = target: T5, LIN7A, O14910
# LNX2_2, Q8N448 = target: T6, LNX2_2, Q8N448
# MAGI1_1, Q96QZ7 = target: MAGI1_1, Q96QZ7
# Sequence of MAGI1_1, Q96QZ7 (Q96QZ7 1-106): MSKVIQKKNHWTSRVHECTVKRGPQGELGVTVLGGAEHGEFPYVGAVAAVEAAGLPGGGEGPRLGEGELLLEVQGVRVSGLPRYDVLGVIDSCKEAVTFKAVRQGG
# MPP7, Q5T2T1 = target: T7, MPP7, Q5T2T1
# NHERF3_3, Q5T2W1 = target: T8, NHERF3_3, Q5T2W1
# NOS1, P29475 = target: NOS1, P29475
# Sequence of NOS1, P29475 (P29475 9-101): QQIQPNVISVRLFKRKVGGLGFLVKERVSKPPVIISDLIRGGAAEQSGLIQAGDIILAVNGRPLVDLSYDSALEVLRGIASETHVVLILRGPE
# PARD3_3, Q8TEW0 = target: PARD3_3, Q8TEW0
# Sequence of PARD3_3, Q8TEW0 (Q8TEW0 582-685): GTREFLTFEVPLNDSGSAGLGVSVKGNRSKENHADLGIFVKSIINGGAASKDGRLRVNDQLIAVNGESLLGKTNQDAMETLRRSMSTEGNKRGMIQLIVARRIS
# PDZRN4_1, Q6ZMN7 = target: PDZRN4_1, Q6ZMN7
# Sequence of PDZRN4_1, Q6ZMN7 (Q6ZMN7 213-318): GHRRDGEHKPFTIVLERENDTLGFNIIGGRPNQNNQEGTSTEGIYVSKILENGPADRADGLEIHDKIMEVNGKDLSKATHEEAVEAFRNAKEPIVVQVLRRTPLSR
# PICK1, Q9NRD5 = target: PICK1, Q9NRD5
# Sequence of PICK1, Q9NRD5 (Q9NRD5 17-115): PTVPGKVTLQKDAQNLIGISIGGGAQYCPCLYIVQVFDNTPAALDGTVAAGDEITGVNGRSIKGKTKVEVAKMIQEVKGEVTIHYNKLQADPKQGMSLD
# PTPN13_1, Q12923 = target: T9, PTPN13_1, Q12923
# SNTA1, Q13424 = target: T10, SNTA1, Q13424
# SNTG1, Q9NSN8 = target: T11, SNTG1, Q9NSN8
# SNX27, Q96L92 = target: SNX27, Q96L92
# SYNJ2BP, P57105 = target: T12, SYNJ2BP, P57105
# [1] = plain residues with an end cap or a label only (N-terminal biotin on a linker: ttds)
# [2] = plain residues with an end cap or a label only (N-terminal biotin on a linker: ahx)
binder,measurement,setting,value
"RLPKIKETTV [FRMPD4, Q14CM0]",pKd,"APBA1_2, Q02410; [1]",below the threshold
same,pKd,"APBA2_2, Q99767; [1]",below the threshold
same,pKd,"ARHGEF11, O15085; [1]",3.71
same,pKd,"DLG4_1, P78352; [1]",5.05
same,pKd,"DLG4_2, P78352; [1]",5.6
same,pKd,"GIPC2, Q8TF65; [1]",below the threshold
same,pKd,"GRIP1_2, Q9Y3R0; [1]",below the threshold
same,pKd,"GRIP2_4, Q9C0E4; [1]",below the threshold
same,pKd,"IL16_4, Q14005; [1]",below the threshold
same,pKd,"Inadl_2, Q8NI35; [1]",below the threshold
same,pKd,"Inadl_4, Q8NI35; [1]",below the threshold
same,pKd,"Inadl_8, Q8NI35; [1]",3.98
same,pKd,"LIN7A, O14910; [1]",4.38
same,pKd,"LNX2_2, Q8N448; [1]",4.47
same,pKd,"MAGI1_1, Q96QZ7; [1]",below the threshold
same,pKd,"MPP7, Q5T2T1; [1]",below the threshold
same,pKd,"NHERF3_3, Q5T2W1; [1]",below the threshold
same,pKd,"NOS1, P29475; [1]",below the threshold
same,pKd,"PARD3_3, Q8TEW0; [1]",below the threshold
same,pKd,"PDZRN4_1, Q6ZMN7; [1]",4.67
same,pKd,"PICK1, Q9NRD5; [1]",below the threshold
same,pKd,"PTPN13_1, Q12923; [1]",below the threshold
same,pKd,"SNTA1, Q13424; [1]",6.66
same,pKd,"SNTG1, Q9NSN8; [1]",5.02
same,pKd,"SNX27, Q96L92; [1]",5.73
same,pKd,"SYNJ2BP, P57105; [1]",5.47
"HNAFLSVTTV [PDZRN4, Q6ZMN7]",pKd,"APBA1_2, Q02410; [2]",below the threshold
same,pKd,"APBA2_2, Q99767; [2]",below the threshold
same,pKd,"ARHGEF11, O15085; [2]",3.59
same,pKd,"DLG4_1, P78352; [2]",below the threshold
same,pKd,"DLG4_2, P78352; [2]",3.51
same,pKd,"GIPC2, Q8TF65; [2]",below the threshold
same,pKd,"GRIP1_2, Q9Y3R0; [2]",below the threshold
same,pKd,"GRIP2_4, Q9C0E4; [2]",below the threshold
same,pKd,"IL16_4, Q14005; [2]",3.58
same,pKd,"Inadl_2, Q8NI35; [2]",below the threshold
same,pKd,"Inadl_4, Q8NI35; [2]",below the threshold
same,pKd,"Inadl_8, Q8NI35; [2]",3.52
same,pKd,"LIN7A, O14910; [2]",3.52
same,pKd,"LNX2_2, Q8N448; [2]",3.87
same,pKd,"MAGI1_1, Q96QZ7; [2]",below the threshold
same,pKd,"MPP7, Q5T2T1; [2]",below the threshold
same,pKd,"NHERF3_3, Q5T2W1; [2]",below the threshold
same,pKd,"NOS1, P29475; [2]",below the threshold
same,pKd,"PARD3_3, Q8TEW0; [2]",3.81
same,pKd,"PDZRN4_1, Q6ZMN7; [2]",3.5
same,pKd,"PICK1, Q9NRD5; [2]",below the threshold
same,pKd,"PTPN13_1, Q12923; [2]",below the threshold
same,pKd,"SNTA1, Q13424; [2]",3.56
same,pKd,"SNTG1, Q9NSN8; [2]",below the threshold
same,pKd,"SNX27, Q96L92; [2]",3.65
same,pKd,"SYNJ2BP, P57105; [2]",below the threshold
